For this assay, the target named is urotensin II receptor (human) (UniProt Q9UKP6). Description: cell-based or functional assay.
Sequence of UniProt Q9UKP6 (Q9UKP6 whole entry): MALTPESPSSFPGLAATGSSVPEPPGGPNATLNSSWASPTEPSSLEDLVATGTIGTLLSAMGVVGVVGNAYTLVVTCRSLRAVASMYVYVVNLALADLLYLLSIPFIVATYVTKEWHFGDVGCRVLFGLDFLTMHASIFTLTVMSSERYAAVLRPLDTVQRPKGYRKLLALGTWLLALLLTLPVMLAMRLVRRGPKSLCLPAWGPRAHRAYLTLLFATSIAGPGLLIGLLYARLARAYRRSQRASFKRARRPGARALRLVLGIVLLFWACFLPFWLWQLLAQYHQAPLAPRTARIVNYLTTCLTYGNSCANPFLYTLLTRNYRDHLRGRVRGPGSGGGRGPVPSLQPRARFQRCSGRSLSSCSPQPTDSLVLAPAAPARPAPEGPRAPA

On to “urotensin II (from UniProt O95399 114-124) (peptide)”, for which the CTGF mRNA (real-time PCR, GAPDH mRNA as reference) in human heart fibroblasts after 6 h with 1 µM urotensin II; control 0.45 +/- 0.27 (relative to GAPDH mRNA) turned out to be 0.88; the Col 1 mRNA (real-time PCR, GAPDH mRNA as reference) in human heart fibroblasts after 6 h with 1 µM urotensin II; control 0.56 +/- 0.1 (relative to GAPDH mRNA) came out at 0.92; the MMP 2 mRNA (real-time PCR, GAPDH mRNA as reference) in human heart fibroblasts after 6 h with 1 µM urotensin II; control 0.43 +/- 0.2 (relative to GAPDH mRNA) was 0.65; the TGFbeta1 mRNA (real-time PCR, GAPDH mRNA as reference) in human heart fibroblasts after 6 h with 1 µM urotensin II; control 0.60 +/- 0.09 (relative to GAPDH mRNA) was found to be 0.81.
